Data published in the nanobody polyreactivity screen of Harvey et al. (2022).

Experiment: yeast display, Sf9 membrane polyspecificity reagent, FACS + sequencing; frameworks hold sequencing errors
Outline: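 Galactose induction of a Saccharomyces cerevisiae BJ5465 synthetic nanobody display library ran 36–48 hours. The cells were then stained for 1 hour at 4 °C with 10% biotinylated, detergent-solubilized Sf9 membrane reagent, pulled down on streptavidin microbeads and FACS-sorted into low and high (top ~1%) gates on expression and reagent-binding fluorescence. Labels for polyreactivity follow the gate of origin.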

Sequence	polyreactivity (PSR sort gate)
QVQLVESGGGLVQAGGSLRLSCAASGSTFPYNVMGWYRQAPGKERELVASISWSGGRQYYADSVKGRFTISRDNAKNTVYLQMNSLKPEDTAVYYCAADAAFPADYWGQGTQVTVSS	low polyreactivity
QVHLVESGGGLVQAGGSLRLSCAASGSIFAVNAMGWYRQAPGKERELVAVITSRGGSTYYADSVKGRFTISRDNAKNTVYLQMNSLKPEDTAVYYCAARPGAAGYKYYYWGQGTQVTVSS	high polyreactivity
QVQLVESGGGLVQAGGSLRLSCAASGLIFGYNAMGWYRQAPGKESELVAAISSSGGSTSYADSVKGRFTISRDNAKNTVYLQMNSLKPEDTAVYYCAAKPGRYADYDYNSWGQGTQVTVSS	low polyreactivity
QVQLVESGGGLVQAGGSLRLSCAASGRIFHKYTMGRYRQAPGKERELVAAISFSTGNTFYADSVKGRFTISRDTANNTVFLQMNSLKPEDTAVYYCATDVLYPDYDYWGQGTQVTVSS	low polyreactivity
QVQLVESGGGLVQAGGSLRLSCAASGFTFTSYAMGWYRQAPGKERELVAAITVTGGRTYYADSVKGRFTISRDNAKNTVYLQMNSLKPEDTAVYYCATVFSLSSPYWKHYYWGQGTQVTVSS	high polyreactivity
QVQLVESGGGLFQAGGSLRVSCAASGITFRDNGMVWYRQAPGKERELVAAITSGGSTYYADSVKGSCTISRDHAKNTVYFQMNSLKPEDTAVYLCAAKRIKRRGWRQLSWYDSWGQGTQVTVSS	high polyreactivity
QVQLVESGGGLVQAGGSLRLSCAASGFIFRRYAMGWYRPAPGKEREFVAAISWSGATTYYADSVKGRFTISRDNAKITVYLQMNSLKPEDTAVYYCAKDVRRSPSTWDNYWGQGTQVTVSS	high polyreactivity
QVQLVESGGGLVQAGGSLRLSCAASGRIFEHYAMGWYRQAPGKERELVAAITVSVGSTYYADSVKGRFTISRDNAKNTVYLEMNSLKPEDTAVYYCAAGIHCRYARDWYEYWGQGTQVTVSS	low polyreactivity
QVQLVESGGGLLQAGGSLRLSCASSGSTFYTNDMGWYRPAPGKERELVAAITSAGNTNYADSVKGRFTISRDNAKNTVYLQMNSLKPEDTAVYYYYYYQYDYWGQGTQVTVSS	low polyreactivity
QVQLVESGGGLVQAGGSLRLSCAASGSIFYRNVMGWYRQAPGKERELVAAITWSGGSTYYADSVKGRFTISRDNAKNTVYLQMNSLKPEDTAVYYCAAASKGTYRGKVSGYYYWGQGTQVTVSS	high polyreactivity
QVQLVESGGGLVQAGGSLRLSCAASGSILPVYVMGWYRQAPGKERELVAAISSGGSTTYADSVKGRFTISRDNAKNTVYLQMNSLKPEDTAVYYCNADVVRGYSYIYRWPFRYAYDYWGQGTQVTVSS	low polyreactivity
QVQLVESGGGLVQAGGSLRLSCAASGINIKYNTMGWYRQAPGKERELVAAISSSGGTKYYADSVKGRFTISRDNAKNTVYLQMNSLKPEDTAVYYCAAGANAQRVPNGDYWGQGTQVTVSS	low polyreactivity
QVQLVESGGGLVQAGGSLRLSCAASGFIFVYNAMGWYRQAPGKEREFVASITWSGGRTYYADSVKGRFTISRDNAKNTVYLLMNILKPEDTAVYYCATKYPNSQGRRYDYWGKGTQVTVSS	low polyreactivity
QVQLVESGGGLVQAGGSLRLSCAASGSISFYYGIGWYRHAPGKERELVAALNNTGSTNYADSVKGRFTISRDNAKNTVYLQMNSLKPEDTAVYYCNAEQWQSSEYGEWSKRDYWGHGTQVTVSS	low polyreactivity
QVQLVESGGGLLQAGGSISLSCAASGFTISPYAMGWYRQAPAKERELVAVISKSSTRTYYADSVKGRFTITRDNAKNTVYLQMNSLKPEDTAVYYCYAGCNFVSGYYYWGQGTQVTVSS	high polyreactivity
QVQLVESGGGLVQAGGSLRLSCAASGNIFDEYTMGWYRQAPGKEREFVAGISDDGDTSYADSVKGRFTISRDNAKNTVYLQMNSLKPEDTAVYYCNADDLSYYESYWGFLYDYWGQGTQVTVSS	low polyreactivity
QVQLVESGGGLVQAGGSLRLSCAASGSTFFSNAMGWSRQAPGKERELVAAISWSGGSTYYADSVKGRFTISRDNAKNTVYLQMNSLKPEDTAVYYCAASFWTDYYRYDYWGQGSQVTVSS	low polyreactivity
QVQLVESGGGLVQAGGSLRLSCAASGSTFRYNVMGWYRQAPGKERDLVAAITRRGSRTYYADSVKGRFTISRDNAKNTVYLQMNSLKPEDTAVYYCNKYSLSVPANDDYWGQGSQVTVSS	high polyreactivity
QVQLVESGGGLVQAGGSLRLSCAASGFIFLENDMGWYRQAPGKERELVASINSGSDTNYADSVKGRFTISRDNAKNTVYLQMNSLKPEDTAVYYCNASYNGVPARYDYWGQGTQVTVSS	low polyreactivity
QVQLVESGGGLVQAGGSLRLSCAASGSNFWLYAMGWYRQAPGKERELVAAIRSGDRTNYADSVKGRFTISRDNAKNTVYLQMNSLKPEDTAVYYCAAVAYLNWTPHYYWGQGTQVTVSS	low polyreactivity
QVQLVESGGGLVQAGGSLRLSCAASGIIFDEYAMGWYRQAPGKERELVAAISSRGTNTYYADSVKGRFTISRDHAKNTVYLQMNSLKPEDTAVYYCAARRPPVTRHFGYWGQGTQVTVSS	high polyreactivity
QVQLVESGGGLVQAGGSLRLSCAASGRIFYGNAMGWYRQAPGKERELVARISSGSSTNYADSVKGRFTISRDNAKNTVYLQMNSLKPEDTAVYYCAARYTARRQSYGYWGQGTQVTVSS	high polyreactivity

Sequence	polyreactivity (PSR sort gate)
QVQLVESGGGLVQAGGSLRLSCAASGSTFGSYVMGWYRQAPGKERELVAAISGSGGSTYYADSVKGRFTISRDNAKNTVYLQMTSLKPEDTAVYYCAAYVFFPWYGYWGQGTQVTVSS	high polyreactivity
QVQLVESGGGLVQAGGSLRLSCAASGRTFVTNAMGWYRQAPGKERELVAAIRWSSDSTYYADSVKGRFTISRDNAKNTVYLQMNSLKPEDTAVYYCAKQWYVAKISYDYWGQGTQVTVST	high polyreactivity
QVQLVESGGGLVQAGGILRLSCAASGSIFSPNAKGWYRQAPGKVRQLVAAIDFSAGSTYYADSVKGRFTISRDNAKNTVYLQMHSLKPEDTAVYYCAADYYYSYCYWFSSSYGYWGPGTQVTVSS	high polyreactivity
QVQLVESGGGLVQAGGSLRLSCAASGRIFYYYAMGWYRQAPGKERELVAAISQRGGRTYYADSVKGRFTISRDIAKNTVYLQMNSLIPEDTAVYYCNAYPVYGRYTHYGYGHWGQGTKVTVSS	high polyreactivity
QVQLVESGGGLVQAGGSLRLSCAASGITFPVYVMGWYRQAPGKERELVAAISNGGDTYYADSVKGRFTISRDNAKNTVYLQMNSLKPVDTAVYYCAAYYSFPNDYGYEYDYWGQGTQVTVSS	low polyreactivity
QVQLVESGVGLVQAGGSLRLRCAASGSIFEGNGMGWYRQAPGKERELVASITRSGGSTYDADSVKGRFTISRDNAQNTVYVQMNSLKPEDTAVYYCAAKGTTYGLTIRWYPYLHGYNYWGQGTQVTVSS	low polyreactivity
QVQLVESGGGLVQAGGSLRLSCAASGRIFHYYAMGWYIKAPGKERELVAAITSSGGSTYYADSVKGRFTISRDNAKNTVYLKMNSLKPEDTAVYYCAARGRRVSAYYYWGQGTQVTVSS	high polyreactivity
QVPLVESGGGLVHAVGSLRLSCAASGSIFYPYAMGWNRKAPWKERELVARITSGGSTHYADSVKGRFTISRDNDNHNVYLHMNSLKPEDTAVYYFNADYWFVEYDYWGQGTQVTVSS	low polyreactivity
QVQLVESGGGLVQAGGSLRLSCAASGSIFRRYDMGWYRQAPGKERELVAAISSSGGSTYYADSVKGRFTISRDNAKNTVYLQMNSLKPEDTAVYYCAADIYDDDRSEYTEYDYWGQGTQVTVSS	low polyreactivity
QVQRVESRGGLVKSGGSLRLSSASSGSTFRWYAMGWYRQAPGKERELVARINTRGGGTYYADSVKGRFTISRDNAKNTVYLQMNSLKPEDTAVYYCAAYSSWSGGLGGDYYWGQGTQVTVSS	low polyreactivity
QVQLVESGGGLVQAGGSLRLSCAASGSISSKNAMGWYRQAPGKEREFVAVISGTGGSTYYADSVKGRFTISRDNAKNTVYLQMNSLKPEDTAFYYCAAAASSIVSYGYTWTYGYWGQGTQVTVSS	low polyreactivity
QVQLVESGGGLDQAGGSLRLSCAASGFIFFINDMGWYRQAPGKERELVAAISWSGGSTYYADSVKGRFTISRDNAKNTVYLQMNSLKPEDTAVYYCNTDVPTAQYDYWGQGTQVTVSS	low polyreactivity
QVQLVESGGCLVQEGGSLRLSCAASGSTVTYYDMGWYRQAPGKERELVATIDSTTRTYYADSVKGRFTISRDNAKNTVYLQMNSLKPEDTAVYYCAADMTWGYFYYLFYRYDYWGKGTQVTVSS	low polyreactivity
QVQLVESGGGLVQAGGSLRLSCAASGSTLVVYAMGRYRQAPGIERELVAAISSIGGRPYYADSVKGRFTISRDNAKYTVYLQMNSLKPEDTAVYYCTALRYVVYFDDDYWGQGTQVTVSS	high polyreactivity
QVQRVESGGGLVQAGGSLRLSCAASGSTFDRNAMGWYRQAPGKERELVAAIDYSGGSTYYADSVKGRFTISRDNAKNTVYLQMNSLKPEDTAVYYCAARVDGPDYSDGNYWGQGSQVTVSS	low polyreactivity
QVQLVESCGGLVQAGGSLRLSCAASGRIFNHNAMGWYRQAPGKEMKLVAAISWRGGSTYYADSVKGRFTISRYNAKNTVYLQRNSLKPEDTAVYYCATKPSPITYKLDYWGQGTQVTVSS	high polyreactivity
QVQLVESGGGLVQAGGSLRLSRDASGIIIYDYDIGWYRKAPGKERELVAAITSSGGSTYYADSVKGRFTLSRDNAKNTVYLQMNSLIPEDTAVYYCAAATRGSGRRYDYWGQGTQVTVSS	high polyreactivity
QVQLVESFGGLVHAGGSLRLSCAASGFTFTSYTMGWYRQAPGKEREMVAAITNTGGSTYYADSVKGRFTISRDNAKNYVYLQMNSLKQEDTWVYYCAARTHIYGKFWRFYWGQGTQVTVSS	low polyreactivity
QVQLEESGGGLVQAGGSLRLSCAASGRIFGWYALGWTRQAAGKESELVAAISNDGSTNYADSVKGRFTSSRDNAKNTVYLQLNSVKPEDTAVSYCNARVYSSRARWGTYDYWGQGNQVTVSS	high polyreactivity
QVQLVESGGGLVQAGGSLRLSCAASGFTFYRYAMGSYRQAPGKERELVAAITFRGDSTYYADSVKGRFTISRDNAKNTVYLQMNSLKPEDTAVYYCAADRPSGWYSYLSLYIVRRGYWGQGTQVTVSS	low polyreactivity
QFHLVESGGGLVQAGGSLRLSCAASGRIFYPYAMGWYRQAPGKEREFVAAITRRTASTYYADSVKGRFTITRDNAKNTVYLQMNSLKPEDTAVYYCAADSYLKRPYYAGYYYWGQGTQVTVSS	high polyreactivity
